# Source: paper PMC3835729
# System: Nc1ncnc2c1ncn2[C@@H]1O[C@H](COP(=O)(O)NCCc2c[nH]c3ccccc23)[C@@H](O)[C@H]1O
# Assay: purified protein
# Details: 20 mM HEPES, 1 mM MgCl2, pH 7.2, 25 °C
Substance,Km,kcat,kcat/Km
human histidine triad nucleotide binding protein 1 (hHint1) (Homo sapiens),0.13 ± 0.02 µM,2.1 ± 0.1 s⁻¹,1.5e+07 ± 3e+06 M⁻¹ s⁻¹
human histidine triad nucleotide binding protein 1 (hHint1) (Homo sapiens; H51A),1.8 ± 0.2 µM,0.53 ± 0.02 s⁻¹,300000 ± 40000 M⁻¹ s⁻¹
human histidine triad nucleotide binding protein 1 (hHint1) (Homo sapiens; H114A),0.27 ± 0.05 µM,–,–
